Data taken from patent US20240132578A1.

Legend:
Test in all cases: cell-based or functional assay
[1] = target: HIV-1 Env of isolate 92WR026 (pseudovirus) (HIV-1)
[2] = target: HIV-1 Env of isolate MGRM-C-014 (subtype C), on pseudovirus (HIV-1)
[3] = target: HIV-1 Env of isolate MGRM-G-015 (subtype G) (HIV-1)
[4] = target: HIV-1 Env of pseudovirus isolate MGRM-Chronic-B-002 (clade B) (HIV-1)
[5] = target: HIV-1 92BR020 Env (HIV-1)
[6] = target: HIV-1 Env of isolate 93RW029 (clade A pseudovirus) (HIV-1)
[7] = target: HIV-1 Env of isolate 94KE105 (listed under clade A; pseudovirus) (HIV-1)
[8] = target: HIV-1 Env of isolate MGRM-A-007 (clade A pseudovirus) (HIV-1)
[9] = target: HIV-1 Env of isolate MGRM-A-011 (clade A pseudovirus) (HIV-1)
[10] = target: HIV-1 Env of isolate MGRM-D-008 (clade D pseudovirus) (HIV-1)
[11] = target: HIV-1 Env of isolate MGRM-D-020 (clade D pseudovirus) (HIV-1)
[12] = target: HIV-1 MGRM-AE-008 Env (pseudovirus) (HIV-1)
[13] = target: HIV-1 MGRM-AG-002 Env (pseudovirus) (HIV-1)
[14] = target: HIV-1 VLGCA1 envelope glycoprotein (Env) on pseudovirus (HIV-1 (clade A))
[15] = target: HIV-1 envelope glycoprotein (Env) of isolate MGRM-C-007 (HIV-1)
[16] = target: HIV-1 Env of isolate JRFL (HIV-1)
[17] = target: HIV-1 Env of isolate MGRM-A-002 (pseudovirus) (HIV-1)
[18] = target: HIV-1 Env of isolate MGRM-AE-004 (subtype AE) (HIV-1)
[19] = target: HIV-1 Env of isolate MGRM-C-001 (HIV-1)
[20] = target: HIV-1 Env of isolate MGRM-D-018 (pseudovirus) (HIV-1)
[21] = target: HIV-1 Env of isolate MGRM-F1-012 (HIV-1)
[22] = target: HIV-1 Env of isolate MGRM-F1-014 (HIV-1)
[23] = target: HIV-1 Env of pseudovirus isolate MGRM-C-008 (clade C) (HIV-1)
[24] = target: HIV-1 Env of pseudovirus isolate MGRM-C-017 (clade C) (HIV-1)
[25] = target: HIV-1 Env of pseudovirus isolate MGRM-C-022 (clade C) (HIV-1)
[26] = target: HIV-1 Env of pseudovirus isolate MGRM-C-024 (clade C) (HIV-1)
HIV-1 APV6 Env (HIV-1) = target: HIV-1 APV6 Env (HIV-1)
[27] = target: HIV-1 Env of isolate MGRM-AG-003 (pseudovirus) (HIV-1)
[28] = target: HIV-1 Env of isolate MGRM-F1-020 (pseudovirus) (HIV-1)
[29] = target: HIV-1 Env of isolate MGRM-F1-023 (pseudovirus) (HIV-1)
HIV-1 JRCSF Env (HIV-1) = HIV-1 JRCSF Env (HIV-1) (UniProt P20871)
HIV-1 NL43 Env (HIV-1) = target: HIV-1 NL43 Env (HIV-1)
[30] = target: HIV-1 envelope glycoprotein (Env) of isolate 93UG077, subtype A (HIV-1)
[31] = target: HIV-1 envelope glycoprotein (Env) of isolate CAAN.A2, on pseudovirus (HIV-1)
[32] = target: HIV-1 envelope glycoprotein (Env) of isolate CMU02, subtype AE (HIV-1)
[33] = target: HIV-1 envelope glycoprotein (Env) of isolate MG RM-A-008, subtype A (HIV-1)
[34] = target: HIV-1 envelope glycoprotein (Env) of isolate MG RM-A-013, subtype A (HIV-1)
[35] = target: HIV-1 envelope glycoprotein (Env) of isolate MGRM-Chronic-B-024, on pseudovirus (HIV-1)

Chain of 4995_E20 (PGT-142) (antibody) (VH): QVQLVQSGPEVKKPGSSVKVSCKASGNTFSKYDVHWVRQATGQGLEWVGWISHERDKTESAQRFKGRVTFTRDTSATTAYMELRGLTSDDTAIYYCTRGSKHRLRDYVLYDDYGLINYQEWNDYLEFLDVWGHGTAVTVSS
Chain of 4995_E20 (PGT-142) (antibody) (VL): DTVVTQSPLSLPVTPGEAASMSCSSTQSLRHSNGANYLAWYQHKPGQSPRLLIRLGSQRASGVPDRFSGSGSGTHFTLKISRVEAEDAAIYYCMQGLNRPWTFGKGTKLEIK
Chain of 4993_K13 (PGT-141) (antibody) (VH): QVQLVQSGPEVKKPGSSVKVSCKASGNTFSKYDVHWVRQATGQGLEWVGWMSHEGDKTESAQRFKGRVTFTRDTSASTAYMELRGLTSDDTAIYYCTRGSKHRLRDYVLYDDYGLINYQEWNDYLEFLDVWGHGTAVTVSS
Chain of 4995_P16 (PGT-145) (antibody) (VH): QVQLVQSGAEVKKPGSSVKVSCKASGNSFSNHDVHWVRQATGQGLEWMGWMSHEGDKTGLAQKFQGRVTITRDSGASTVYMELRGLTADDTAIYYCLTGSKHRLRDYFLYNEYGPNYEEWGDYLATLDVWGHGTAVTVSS
Chain of 4995_P16 (PGT-145) (antibody) (VL): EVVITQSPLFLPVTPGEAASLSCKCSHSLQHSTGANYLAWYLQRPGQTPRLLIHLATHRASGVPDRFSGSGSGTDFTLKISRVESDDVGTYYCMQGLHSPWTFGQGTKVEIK
Chain of 4980_N08 (PGT-143) (antibody) (VH): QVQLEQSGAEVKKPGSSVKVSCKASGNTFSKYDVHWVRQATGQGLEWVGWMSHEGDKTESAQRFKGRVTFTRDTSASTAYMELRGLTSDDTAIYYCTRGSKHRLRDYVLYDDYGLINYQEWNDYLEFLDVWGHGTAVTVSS
Chain of 4980_N08 (PGT-143) (antibody) (VL): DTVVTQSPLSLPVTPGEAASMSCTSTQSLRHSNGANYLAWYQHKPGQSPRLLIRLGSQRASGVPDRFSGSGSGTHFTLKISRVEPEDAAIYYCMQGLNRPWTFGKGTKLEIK
Chain of 4970_K22 (PGT-144) (antibody) (VH): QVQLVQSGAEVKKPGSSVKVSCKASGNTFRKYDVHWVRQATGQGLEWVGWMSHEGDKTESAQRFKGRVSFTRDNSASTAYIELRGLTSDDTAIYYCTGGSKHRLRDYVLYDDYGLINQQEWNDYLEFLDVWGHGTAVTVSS
Chain of 4970_K22 (PGT-144) (antibody) (VL): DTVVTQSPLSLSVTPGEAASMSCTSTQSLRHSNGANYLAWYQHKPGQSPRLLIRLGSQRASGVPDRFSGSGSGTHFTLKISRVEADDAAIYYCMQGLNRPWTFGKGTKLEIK
Chain of 1443_C16 (PG16) (TCN-116) (antibody) (VH): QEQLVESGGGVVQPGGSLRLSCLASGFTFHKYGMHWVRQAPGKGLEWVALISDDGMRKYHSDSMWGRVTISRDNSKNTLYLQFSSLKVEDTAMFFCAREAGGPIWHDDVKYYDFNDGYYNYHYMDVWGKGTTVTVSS
Chain of 1443_C16 (PG16) (TCN-116) (antibody) (VL): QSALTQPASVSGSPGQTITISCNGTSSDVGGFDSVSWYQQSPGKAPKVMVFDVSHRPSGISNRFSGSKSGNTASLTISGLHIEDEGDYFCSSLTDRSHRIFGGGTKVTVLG

Substance	IC50 (µg/mL), pseudovirus neutralization [3] [µg/mL]	IC50, pseudovirus neutralization [5] [µg/mL]	IC50 (µg/ml), pseudovirus neutralization [6] [µg/mL]	IC50 (µg/ml), pseudovirus neutralization [7] [µg/mL]	IC50 (µg/ml), pseudovirus neutralization [8] [µg/mL]	IC50 (µg/ml), pseudovirus neutralization [9] [µg/mL]	IC50, pseudovirus neutralization [10] [µg/mL]	IC50, pseudovirus neutralization [11] [µg/mL]	IC50 (µg/ml), pseudovirus neutralization [12] [µg/mL]	IC50 (µg/ml), pseudovirus neutralization [13] [µg/mL]	IC50 (µg/ml), pseudovirus neutralization [14] [µg/mL]	IC50 (µg/ml), pseudovirus neutralization [15] [µg/mL]	other results
4995_P16 (PGT-145) (antibody)	10.5												IC50 (µg/mL), single-round pseudovirus neutralization [1]: 1.45 µg/mL; IC50, single-round pseudovirus neutralization [2]: 5.82 µg/mL; IC50, pseudovirus neutralization [4]: 3.67 µg/mL
4970_K22 (PGT-144) (antibody)	> 50	> 10											IC50 (µg/mL), single-round pseudovirus neutralization [1]: 32.7 µg/mL; IC50, single-round pseudovirus neutralization [2]: > 50 µg/mL; IC50, pseudovirus neutralization [4]: > 50 µg/mL
2F5 (antibody)			> 50	> 50	16.3	> 50	> 50	> 50	> 50	0.54	3.9	> 50	
5345_I01 (PGT-137) (antibody)													IC50 (µg/mL), pseudovirus neutralization [1]: 0.092 µg/mL; IC50 (µg/mL), pseudovirus neutralization [16]: > 50 µg/mL; IC50 (µg/mL), pseudovirus neutralization [17]: > 50 µg/mL; IC50, pseudovirus neutralization [18]: > 50 µg/mL; IC50 (µg/mL), pseudovirus neutralization [19]: 21.5 µg/mL; IC50 (µg/mL), pseudovirus neutralization [20]: 15.1 µg/mL; IC50 (µg/mL), pseudovirus neutralization [21]: > 50 µg/mL; IC50 (µg/mL), pseudovirus neutralization [22]: > 50 µg/mL; IC50, pseudovirus neutralization [23]: > 50 µg/mL; IC50, pseudovirus neutralization [24]: > 50 µg/mL; IC50, pseudovirus neutralization [25]: > 50 µg/mL; IC50, pseudovirus neutralization [26]: > 50 µg/mL
2G12 (antibody)			> 50	7.22	> 50	> 50	> 50	> 50	> 50	0.54	> 50	> 50	
5329_C19 (PGT-136) (antibody)		> 10											IC50 (µg/mL), pseudovirus neutralization [1]: > 50 µg/mL; IC50 (µg/mL), pseudovirus neutralization [16]: > 50 µg/mL; IC50 (µg/mL), pseudovirus neutralization [17]: > 50 µg/mL; IC50, pseudovirus neutralization [18]: > 50 µg/mL; IC50 (µg/mL), pseudovirus neutralization [19]: 7.52 µg/mL; IC50 (µg/mL), pseudovirus neutralization [20]: > 50 µg/mL; IC50 (µg/mL), pseudovirus neutralization [21]: > 50 µg/mL; IC50 (µg/mL), pseudovirus neutralization [22]: > 50 µg/mL; IC50, pseudovirus neutralization [23]: > 50 µg/mL; IC50, pseudovirus neutralization [24]: > 50 µg/mL; IC50, pseudovirus neutralization [25]: > 50 µg/mL; IC50, pseudovirus neutralization [26]: > 50 µg/mL
4877_D15 (PGT-122) (antibody)		0.0337											IC50, pseudovirus neutralization (HIV-1 APV6 Env (HIV-1)): 0.0851 µg/mL; IC50 (µg/mL), pseudovirus neutralization [27]: 43.7 µg/mL; IC50 (µg/mL), pseudovirus neutralization [28]: 0.321 µg/mL; IC50 (µg/mL), pseudovirus neutralization [29]: 0.154 µg/mL; IC50, pseudovirus neutralization (HIV-1 JRCSF Env (HIV-1)): 0.0727 µg/mL; IC50, pseudovirus neutralization (HIV-1 NL43 Env (HIV-1)): > 10 µg/mL; IC50, pseudovirus neutralization [30]: 0.084 µg/mL; IC50, pseudovirus neutralization [31]: 0.011 µg/mL; IC50, pseudovirus neutralization [32]: > 50 µg/mL; IC50, pseudovirus neutralization [33]: > 50 µg/mL; IC50, pseudovirus neutralization [34]: 2.47 µg/mL; IC50, pseudovirus neutralization [35]: 2.31 µg/mL
1495_C14 (PGC14) (antibody)			42	> 50	> 50	> 50	> 50	> 50	> 50	> 50	> 50	> 50	
4995_E20 (PGT-142) (antibody)	> 50	> 10											IC50 (µg/mL), single-round pseudovirus neutralization [1]: 1.78 µg/mL; IC50, single-round pseudovirus neutralization [2]: 6.02 µg/mL; IC50, pseudovirus neutralization [4]: > 50 µg/mL
1443_C16 (PG16) (TCN-116) (antibody)			3.83	6.13	5.91	0.24	> 50	16.3	3.25	0.03	0.18	0.05	
4980_N08 (PGT-143) (antibody)	> 50	> 10											IC50 (µg/mL), single-round pseudovirus neutralization [1]: 5.36 µg/mL; IC50, single-round pseudovirus neutralization [2]: 8.81 µg/mL; IC50, pseudovirus neutralization [4]: > 50 µg/mL
1496_C09 (PG9) (TCN-109) (antibody)	6.6		1.19	29.6	0.37		6.86	2.03	10.6	0.04	0.07	0.09	IC50, pseudovirus neutralization (HIV-1 APV6 Env (HIV-1)): 0.214 µg/mL; IC50, pseudovirus neutralization (HIV-1 JRCSF Env (HIV-1)): 0.0048 µg/mL; IC50, pseudovirus neutralization (HIV-1 NL43 Env (HIV-1)): 0.687 µg/mL
4993_K13 (PGT-141) (antibody)	> 50	> 10											IC50 (µg/mL), single-round pseudovirus neutralization [1]: 1.78 µg/mL; IC50, single-round pseudovirus neutralization [2]: 11.8 µg/mL; IC50, pseudovirus neutralization [4]: > 50 µg/mL
PGV04 (antibody)	0.333												IC50 (µg/mL), pseudovirus neutralization [27]: 0.058 µg/mL
4838_L06 (PGT-121) (antibody)													IC50 (µg/mL), pseudovirus neutralization [28]: 0.167 µg/mL; IC50 (µg/mL), pseudovirus neutralization [29]: 0.097 µg/mL; IC50, pseudovirus neutralization (HIV-1 NL43 Env (HIV-1)): > 10 µg/mL; IC50, pseudovirus neutralization [30]: 0.019 µg/mL; IC50, pseudovirus neutralization [31]: 0.011 µg/mL; IC50, pseudovirus neutralization [32]: > 50 µg/mL; IC50, pseudovirus neutralization [33]: > 50 µg/mL; IC50, pseudovirus neutralization [34]: 0.387 µg/mL; IC50, pseudovirus neutralization [35]: 0.195 µg/mL
b12 (antibody)			> 50	> 50	> 50	4.01	> 50	> 50	> 50	0.89	> 50	> 50	
4E10 (antibody)			15.5	7.63	1.82	2.88	42.9	> 50	0.94	0.8	4.58	5.84	
